Measured values published in US20180256699A1 (University of Texas, published 2018).

Experiments:
Test in all cases: ELISA, murine αMβ2 integrin coated, domain serially diluted
[1] = target: CAT400, catalytic domain of ACT, residues 1-400 (Bordetella pertussis, UniProt J7QLC0 1-400)
Procedure: (§1) To assess non-specific binding, control wells were not coated with αMβ₂ receptor but blocked with M-PBST only.
(§2) Recombinant murine αMβ₂ integrin (R&D Systems) was coated at 1 μg/mL in PBS at 4° C. overnight, and blocked with M-PBST.

[2] = target: HP1096, hydrophobic domain of ACT, residues 399-1096, MBP fusion, non-acylated (Bordetella pertussis, UniProt J7QLC0 399-1096)
Procedure: as §1, §2

[3] = target: HP1096*, hydrophobic domain of ACT, residues 399-1096, MBP fusion, acylated (Bordetella pertussis, UniProt J7QLC0 399-1096)
Procedure: as §1, §2

[4] = target: RTX985, RTX domain of ACT, residues 985-1706 (Bordetella pertussis, UniProt J7QLC0 985-1706)
Procedure: as §1, §2

Measured: binding result

B1: Recombinant soluble murine αMβ2 integrin (R&D Systems) (receptor)
chain 1: FNLDTEHPMTFQENAKGFGQNVVQLGGTSVVVAAPQEAKAVNQTGALYQCDYSTSRCHPIPLQVPPEAVNMSLGLSLAVSTVPQQLLACGPTVHQNCKENTYVNGLCYLFGSNLLRPPQQFPEALRECPQQESDIVFLIDGSGSINNIDFQKMKEFVSTVMEQFKKSKTLFSLMQYSDEFRIHFTFNDFKRNPSPRSHVSPIKQLNGRTKTASGIRKVVRELFHKTNGARENAAKILVVITDGEKFGDPLDYKDVIPEADRAGVIRYVIGVGNAFNKPQSRRELDTIASKPAGEHVFQVDNFEALNTIQNQLQEKIFAIEGTQTGSTSSFEHEMSQEGFSASITSNGPLLGSVGSFDWAGGAFLYTSKDKVTFINTTRVDSDMNDAYLGYASAVILRNRVQSLVLGAPRYQHIGLVVMFRENFGTWEPHTSIKGSQIGSYFGASLCSVDMDADGNTNLILIGAPHYYEKTRGGQVSVCPLPRGRARWQCEALLHGDQGHPWGRFGAALTVLGDVNGDKLTDVAIGAPGEQENQGAVYIFYGASIASLSASHSHRIIGAHFSPGLQYFGQSLSGGKDLTMDGLMDLAVGAQGHLLLLRAQPVLRLEATMEFSPKKVARSVFACQEQVLKNKDAGEVRVCLRVRKNTKDRLREGDIQSTVTYDLALDPVRSRIRAFFDETKNNTRRRTQVFGLMQKCETLKLILPDCVDDSVSPIILRLNYTLVGEPLRSFGNLRPVLAMDAQRFFTAMFPFEKNCGNDSICQDDLSITMSAMGLDTLVVGGPQDFNMSVTLRNDGEDSYGTQVTVYYPSGLSYRKDSASQNPLTKKPWFVKPAESSSSSEGHGALKSTTWNINHPIFPANSEVTFNVTFDVDSHASFGNKLLLKAIVASENNMSRTHKTKFQLELPVKYAIYMIVTSDESSIRYLNFTASEMTSKVIQHQYQFNNLGQRSLPVSVVFWIPVQINNVTVWDHPQVIFSQNLSSACHTEQKSPPHSNFRDQLERTPVLNCSVAVCKRIQCDLPSFNTQEIFNVTLKGNLSFDWYIKTSHGHLLLVSSTEILFNDSAFALLPGQESYVRSKTETKVEPYEVHN
chain 2: QECTKYKVSSCRDCIQSGPGCSWCQKLNFTGPGEPDSLRCDTRAQLLLKGCPADDIMDPRSIANPEFDQRGQRKQLSPQKVTLYLRPGQAAAFNVTFRRAKGYPIDLYYLMDLSYSMLDDLNNVKKLGGDLLQALNEITESGRIGFGSFVDKTVLPFVNTHPEKLRNPCPNKEKACQPPFAFRHVLKLTDNSNQFQTEVGKQLISGNLDAPEGGLDAIMQVAACPEEIGWRNVTRLLVFATDDGFHFAGDGKLGAILTPNDGRCHLEDNMYKRSNEFDYPSVGQLAHKLSESNIQPIFAVTKKMVKTYEKLTEIIPKSAVGELSDDSSNVVQLIKNAYYKLSSRVFLDHSTLPDTLKVTYDSFCSNGASSIGKSRGDCDGVQINNPVTFQVKVMASECIQEQSFVIRALGFTDTVTVQVRPQCECQCRDQSREQSLCGGKGVMECGICRCESGYIGKNCECQTQGRSSQELERNCRKDNSSIVCSGLGDCICGQCVCHTSDVPNKEIFGQYCECDNVNCERYNSQVCGGSDRGSCNCGKCSCKPGYEGSACQCQRSTTGCLNARLVECSGRGHCQCNRCICDEGYQPPMCEDCPSCGSHCRDNHTSCAECLKFDKGPFEKNCSVQCAGMTLQTIPLKKKPCKERDSEGCWITYTLQQKDGRNIYNIHVEDSLECVKGPN
notes: extracellular domain; also called αMβ2 receptor; soluble αMβ2 integrin
no binding: all assays above
